Patent publication US20070160601A1 (published 2007)
Square brackets hold non-standard residues; d marks the D form. cellulose membrane = cellulose membrane solid support, attached through a beta-alanine spacer; sY = N[C@@H](Cc1ccc(OS(=O)(=O)O)cc1)C(=O)O; βAla = NCCC(=O)O

T1: peptide EYEYLDyDF (SEQ ID NO:45) (human)
T1 construct: Spot 55 of the peptide array; also called peptide 55
T1 peptide: Ac-EYEYLD[sY]DF-{βAla-cellulose membrane}

T2: human PSGL-1 on cells (human, UniProt Q14242 42-412)
T2 construct: whole, on cells; One molecule is used for HL-60 cells, recombinant CHO cells and blood cells; The cell type is named in each entry; also called native PSGL-1 expressed on HL-60 cells; recombinant CHO cells expressing human PSGL-1
T2 sequence (looked up): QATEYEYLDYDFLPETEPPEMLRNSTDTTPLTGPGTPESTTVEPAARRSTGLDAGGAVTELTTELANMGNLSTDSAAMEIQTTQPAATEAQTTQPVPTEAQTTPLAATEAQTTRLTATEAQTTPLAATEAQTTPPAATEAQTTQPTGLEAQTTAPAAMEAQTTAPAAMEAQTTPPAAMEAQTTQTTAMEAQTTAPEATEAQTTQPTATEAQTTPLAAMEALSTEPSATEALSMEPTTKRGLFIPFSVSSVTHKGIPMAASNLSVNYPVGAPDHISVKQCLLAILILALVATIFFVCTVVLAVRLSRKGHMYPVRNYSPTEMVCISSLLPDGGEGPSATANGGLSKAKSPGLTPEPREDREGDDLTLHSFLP

T3: fully sulfated and glycosylated human PSGL-1 19.ek.Fc fusion protein (human, not fully specified; sulfated tyrosines (y in QATEyEyLDyDFLPETEPPRPMMDDDDK, corresponding to Tyr46, Tyr48 and Tyr51); SLe^x-capped O-glycan; biotinylated in the assays)
T3 construct: also called PSGL-19.ek.Fc; biotinylated PSGL-1 19.ek.Fc
T3 chain: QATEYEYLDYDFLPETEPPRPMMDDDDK


Assays:
[1] = biological target: T1, peptide EYEYLDyDF (SEQ ID NO:45); test: peptide spot array on cellulose membrane, HRP anti-Fc detection
Text: Epitope mapping of PSG3. Fmoc-protected amino acids and cellulose membranes modified with polyethylene glycol were purchased from Intavis. Fmoc-protected β-alanine was purchased from Chem-Impex (Wood Dale, Ill.). The arrays were defined on the membranes by coupling a β-alanine spacer, followed by elongation of the peptide chain. Peptides were synthesized using standard DIC/HOBt coupling chemistry as described previously. (See, e.g., Molina et al., Pept. Res. 9:151-155 (1996) and Frank et al., Tetrahedron 48:9217-9232 (1992)). Activated amino acids were spotted using an Abimed ASP 222 robot. Washing and deprotection steps were done manually and the peptides were N-terminally acetylated after the final synthesis cycle.
Following peptide synthesis and side chain deprotection, the membranes were washed in methanol for 10 minutes and in blocker (1% casein in TBS) for 10 minutes. The membranes were then incubated with 1 μg/mL of […] in TBS for 1 hour with gentle shaking. The membranes were washed 4 times for 2 minutes in TBS and then probed with an HRP-conjugated anti-Fc antibody in blocker. After washing with TBS, bound protein was visualized using SuperSignal West reagent (Pierce) and a digital camera (AlphaInnotech FluorImager). Signal intensity reflects the amount of protein bound at each spot.

human PSGL-1 on cells [2] = biological target: T2, human PSGL-1 on cells; test: FACS on recombinant CHO cells expressing human PSGL-1 (data not shown)
[3] = biological target: T3, fully sulfated and glycosylated human …; test: BIAcore 2000, biotinylated PSGL-1 19.ek.Fc on streptavidin chip, antibody injected at 0-100 nM
Procedure: Surface plasmon resonance binding analysis. A BIAcore 2000 instrument (BIAcore AB, Uppsala, Sweden) was used to analyze the interactions between the identified antibodies and biotinylated PSGL-1 19.ek.Fc or derived peptides. Binding experiments were performed at 25° C. using streptavidin-coated sensor chips (BIAcore) and HBS-P buffer (20 mM HEPES [pH 7.4], 150 mM NaCl and 0.005% polysorbate 20 v/v) adjusted to 1 mM for both CaCl₂ and MgCl₂. The streptavidin on the sensor surfaces were condition with three one-minute injections of a solution containing 1 M NaCl and 25 mM NaOH. The chips were regenerated with 5 μL of 0.1% TFA and equilibrated with running buffer. […] Binding kinetics were analyzed using BIAevaluation software (V2.1; Pharmacia Biosensor, Uppsala, Sweden). The response representing the mass of bound monoclonal antibodies was measured in resonance units (RU). […] Binding kinetics of human anti-PSGL-1 monoclonal antibodies to the immobilized PSGL-1 19.ek.Fc was determined under partial mass transport limitations by triplicate injections at a concentration range (0-100 nM) onto the immobilized biotinlylated PSGL-1 19.ek peptide at a flow rate of 30 μL/min, following injection for two minutes. Dissociation was monitored for ten minutes at the same flow rate.

human PSGL-1 on cells [4] = biological target: T2, human PSGL-1 on cells; test: FACS on HL-60 cells, scFv complexed with mouse anti-Myc, FITC secondary
Procedure: Characterization of the antibodies using FACS analysis. The binding specificity of the neutralizing antibodies was assessed by FACS analysis of HL-60 cells as well as in parent and recombinant CHO cells expressing human or rat PSGL-1 (data not shown). For FACS analysis, 0.5×10⁶ cells were incubated in 100 μL HBSS 2 mM CaCl₂, 1% fetal calf serum, NaN₃, containing 15 or 50 μg of the indicated scFvs complexed with 50 μg/ml mouse-anti-Myc-HRP (Roche Applied Sciences, Indianapolis, Ind.). The cells were washed and incubated with 1:100 anti-mouse FITC-conjugated secondary antibody (Roche Applied Sciences, Indianapolis, Ind.). Analysis was performed on viable cells of the mononuclear population with low forward and side scatter properties. As shown in FIG. 7(A) and FIG. 7(B), PSG3, PSG5, and PSG6 scFvs bind to native PSGL-1 expressed on HL-60 cells.

Binder	binding result [1]	binding result (human PSGL-1 on cells [2])	Ka [3] [M⁻¹]	binding result (human PSGL-1 on cells [4])
PSG3 full-length bivalent antibody (human IgG4, lambda) (antibody, V domains shown, also called full length PSG3; human monoclonal antibody PSG3) VH: QVQLVQSGAEVKKPGSSVRVSCKASGGSFSSYGIHWVQQAPGQGLEWMGRIIPVLRIRNYAQKFHDRVTIDADTSTGTAYMELSSLTSDDTAVYYCAGSRQGVAPTGYWGQGTMVTVSS VL: QAVLTQPSSLSASPGASASLTCNLRSGIDVGTYRIYWYQQKPGSPPQYLLRYKSDSDKQQGSGVPSRFSGTKDASANAGILLISGLQSEDEADYYCMIWHSNGWVFGGGTKLTVLG	binds	binds	~1.4e+09	
PSG6 full-length bivalent antibody (human IgG4, lambda) (antibody, V domains shown, also called human monoclonal antibody PSG6) VH: EVQLLESGGGLVRPGGSLRLSCAASGFTFSSYAMSWVRQAPGKGLEWVSAISGSGGSTYYADSVKGRFTISRDNSKNTLYLQMNSLRAEDTAVYYCARDKRLTYWGQGTMVTVSS VL: QSVVTQPPSVSAAPGQKVTISCSGSSSNIGNNYVSWYQQLPGTAPKLLIYDNNKRPSGIPDRFSGSKSGTSATLGITGLQTGDEADYYCGTWDSSLSARVFGGGTKVTVLG		binds	~6e+08	
PSG6 scFv (scFv, Human scFv from a phage display library, purified on NiNTA and detected with anti-Myc; also called scFv PSG6) scFv: EVQLLESGGGLVRPGGSLRLSCAASGFTFSSYAMSWVRQAPGKGLEWVSAISGSGGSTYYADSVKGRFTISRDNSKNTLYLQMNSLRAEDTAVYYCARDKRLTYWGQGTMVTVSSGGGGSGGGGSGGGGSAQSVVTQPPSVSAAPGQKVTISCSGSSSNIGNNYVSWYQQLPGTAPKLLIYDNNKRPSGIPDRFSGSKSGTSATLGITGLQTGDEADYYCGTWDSSLSARVFGGGTKVTVLGAAAHHHHHH				binds
PSG3 scFv (scFv, Human scFv from a phage display library, purified from E. coli periplasm on NiNTA and detected with anti-Myc; also called scFv PSG3) scFv: QVQLVQSGAEVKKPGSSVRVSCKASGGSFSSYGIHWVQQAPGQGLEWMGRIIPVLRIRNYAQKFHDRVTIDADTSTGTAYMELSSLTSDDTAVYYCAGSRQGVAPTGYWGQGTMVTVSSGGGGSGGGGSGGGGSAQAVLTQPSSLSASPGASASLTCNLRSGIDVGTYRIYWYQQKPGSPPQYLLRYKSDSDKQQGSGVPSRFSGTKDASANAGILLISGLQSEDEADYYCMIWHSNGWVFGGGTKLTVLGAAAHHHHHH				binds
